pIC50: −log10 of the molar value.
Key:
[1] = molecular target: ErbB2/4 full-length ectodomain-Fc heterodimer (human) (UniProt P04626); assay: displacement of Eu-BTC by unlabelled HRGβ from ErbB2/4 ectodomain-Fc captured on protein G
[2] = molecular target: ErbB3 500.Fc (truncated ErbB3 ectodomain-Fc fusion protein homodimer) (human) (UniProt P21860); assay: displacement of Eu-HRGβ by unlabelled HRGβ from ErbB3 500.Fc captured on protein G
[3] = molecular target: ErbB4 497.Fc (truncated ErbB4 ectodomain-Fc fusion protein homodimer) (human) (UniProt Q15303); assay: displacement of Eu-HRGβ by unlabelled HRGβ from ErbB4 497.Fc captured on protein G
[4] = molecular target: ErbB4 497.Fc (truncated ErbB4 ectodomain-Fc fusion protein homodimer) (human) (UniProt Q15303); assay: summary of the Eu-ligand displacement assays (ErbB4 fragment, HRGβ)
[5] = molecular target: full-length ErbB4 ectodomain-Fc fusion homodimer (human) (UniProt Q15303); assay: displacement of Eu-BTC by unlabelled HRGβ from ErbB4 ectodomain-Fc captured on protein G
[6] = molecular target: ErbB3 500.Fc (truncated ErbB3 ectodomain-Fc fusion protein homodimer) (human) (UniProt P21860); assay: summary of the Eu-ligand displacement assays (ErbB3 fragment, HRGβ)

Sequence of ErbB4 497.Fc (truncated ErbB4 ectodomain-Fc fusion protein homodimer) (human) (Q15303 26-497, form in doubt): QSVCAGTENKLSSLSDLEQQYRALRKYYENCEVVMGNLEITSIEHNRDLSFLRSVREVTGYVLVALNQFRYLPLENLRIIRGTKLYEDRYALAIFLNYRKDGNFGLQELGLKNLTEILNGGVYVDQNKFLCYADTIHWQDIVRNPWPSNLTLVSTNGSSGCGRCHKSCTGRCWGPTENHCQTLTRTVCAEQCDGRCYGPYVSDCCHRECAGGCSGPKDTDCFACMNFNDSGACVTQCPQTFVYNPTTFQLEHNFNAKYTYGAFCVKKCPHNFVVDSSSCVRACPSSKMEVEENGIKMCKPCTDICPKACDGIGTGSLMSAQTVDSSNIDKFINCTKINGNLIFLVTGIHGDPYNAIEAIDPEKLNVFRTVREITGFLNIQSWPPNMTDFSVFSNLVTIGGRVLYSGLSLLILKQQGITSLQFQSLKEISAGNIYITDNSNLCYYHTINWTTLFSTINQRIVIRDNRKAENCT
Sequence of ErbB3 500.Fc (truncated ErbB3 ectodomain-Fc fusion protein homodimer) (human) (P21860 20-500, form in doubt): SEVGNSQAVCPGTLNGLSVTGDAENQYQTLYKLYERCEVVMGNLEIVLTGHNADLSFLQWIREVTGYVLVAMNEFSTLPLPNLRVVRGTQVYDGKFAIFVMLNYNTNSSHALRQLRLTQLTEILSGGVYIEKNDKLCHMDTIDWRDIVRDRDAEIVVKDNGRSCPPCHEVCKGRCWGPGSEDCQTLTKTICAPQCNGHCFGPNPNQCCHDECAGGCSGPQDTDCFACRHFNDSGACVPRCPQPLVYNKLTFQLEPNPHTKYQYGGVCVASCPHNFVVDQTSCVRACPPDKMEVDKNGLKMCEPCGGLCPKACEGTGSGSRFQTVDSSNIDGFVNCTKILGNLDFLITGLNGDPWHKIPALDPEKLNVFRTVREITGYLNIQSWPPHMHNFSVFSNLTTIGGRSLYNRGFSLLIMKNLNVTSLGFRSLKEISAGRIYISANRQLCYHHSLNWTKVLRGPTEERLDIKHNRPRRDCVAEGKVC
Sequence of full-length ErbB4 ectodomain-Fc fusion homodimer (human) (Q15303 26-651): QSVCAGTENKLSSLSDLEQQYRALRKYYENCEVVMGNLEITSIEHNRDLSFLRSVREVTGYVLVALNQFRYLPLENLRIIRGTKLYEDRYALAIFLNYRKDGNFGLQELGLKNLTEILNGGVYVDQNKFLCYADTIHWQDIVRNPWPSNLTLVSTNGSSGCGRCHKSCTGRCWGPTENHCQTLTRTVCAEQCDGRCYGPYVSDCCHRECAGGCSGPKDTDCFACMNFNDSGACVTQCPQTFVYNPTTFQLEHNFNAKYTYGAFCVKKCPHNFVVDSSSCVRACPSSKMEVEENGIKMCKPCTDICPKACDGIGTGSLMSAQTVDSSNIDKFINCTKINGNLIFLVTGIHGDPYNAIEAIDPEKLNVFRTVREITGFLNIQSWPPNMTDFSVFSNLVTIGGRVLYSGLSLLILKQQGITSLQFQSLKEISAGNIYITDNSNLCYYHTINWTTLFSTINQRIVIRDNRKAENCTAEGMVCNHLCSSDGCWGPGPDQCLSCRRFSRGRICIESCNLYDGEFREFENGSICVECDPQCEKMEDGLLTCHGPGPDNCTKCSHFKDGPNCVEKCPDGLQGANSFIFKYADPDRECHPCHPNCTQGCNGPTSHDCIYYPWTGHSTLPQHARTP

- change of the IC50 against the ErbB4 ectodomain-Fc homodimer [1]: 100 fold
- pIC50 [2]: 9.31
- pIC50 [3]: 10.24
- affinity [4]: < 1 nM
- pIC50 [5]: 7.74
- affinity [6]: < 1 nM
Substance: β-heregulin (HRGβ, Sigma) (ligand)

Source: patent US20060234343A1
